Laboratory results published in patent US5919901.
Ends that are not written are not given here.

Biological target: T1, Rat Y4/PP1 (clone) (rat), Q63447
T1 chain: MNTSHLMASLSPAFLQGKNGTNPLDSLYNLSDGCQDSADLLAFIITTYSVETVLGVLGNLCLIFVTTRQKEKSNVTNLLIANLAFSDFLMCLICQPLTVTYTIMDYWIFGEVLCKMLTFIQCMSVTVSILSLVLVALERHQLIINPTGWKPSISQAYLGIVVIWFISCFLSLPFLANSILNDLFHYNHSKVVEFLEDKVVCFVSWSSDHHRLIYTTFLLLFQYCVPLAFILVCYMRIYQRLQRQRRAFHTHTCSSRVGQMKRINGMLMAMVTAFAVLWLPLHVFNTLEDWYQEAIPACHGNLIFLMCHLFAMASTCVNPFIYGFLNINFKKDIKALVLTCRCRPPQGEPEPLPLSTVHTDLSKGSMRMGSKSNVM
Assay: competition with rat [125I]PP on the rat Y4/PP1 clone
Conditions: remark: other sources report otherwise

- IC50: > 1000 nM
Binder: PAEDLARYYSALRHYINLITRQRY (ends and bridges not checked) [p(13-36)NPY, P01304]
